# Target: T1, HLA-A*02:01 (Homo sapiens, UniProt P04439, D140Y/D185E/D98H/E176V/E277Q/G131W/G231S/I119V/I121R/I166T/I218V/L300P/L318F/N151K/N90K/P208A/P217A/Q86G/Q94H/R138H/R169H/T345S)
# T1 construct: made in house
# Experiment: MHC binding assay: UV-ligand exchange with β2m ELISA (peptide exchange yield)
# Details: binding to HLA-A*02:01 evaluated by peptide exchange yield (UV-ligand exchange, β2m ELISA)
# Method in brief: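 Exchange yield, UV-ligand exchange: 100-fold diluted samples on streptavidin plates, 1 h at 37 °C; HRP anti-β2m 1 h at 37 °C; TMB read at 450 nm.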
row,Molecule,Peptide exchange
1,42 (KQMSISTGL; listed as Homo sapiens) [compound 42],++ (≧20% = ++)
2,103 (YLADTVQKL; listed as Homo sapiens) [compound 103],++ (≧20% = ++)
3,55 (HLFDKIIKI; listed as Homo sapiens) [compound 55],+++ (≧50 = +++)
4,68 (QLMNLIRSV; listed as Homo sapiens) [compound 68],+++ (≧50 = +++)
5,115 (ILHGEVNKV; listed as Homo sapiens) [compound 115],++ (≧20% = ++)
6,98 (FVQEKIPEL; listed as Homo sapiens) [compound 98],+++ (≧50 = +++)
7,36 (TVLQELINV; listed as Homo sapiens) [compound 36],+++ (≧50 = +++)
8,13 (RLHDENILL; listed as Homo sapiens) [compound 13],+++ (≧50 = +++)
9,19 (KVFELDLVTL; listed as Homo sapiens) [compound 19],++ (≧20% = ++)
10,88 (LLLPLELSLA; listed as Homo sapiens) [compound 88],+++ (≧50 = +++)
11,59 (ALADGIKSFLL; listed as Homo sapiens) [compound 59],+++ (≧50 = +++)
12,37 (QIVELIEKI; listed as Homo sapiens) [compound 37],++ (≧20% = ++)
13,16 (SLADLSLLL; listed as Homo sapiens) [compound 16],+++ (≧50 = +++)
14,30 (IITEVITRL; listed as Homo sapiens) [compound 30],+++ (≧50 = +++)
15,80 (VLTGQVHEL; listed as Homo sapiens) [compound 80],+++ (≧50 = +++)
16,108 (FIANLPPELKA; listed as Homo sapiens) [compound 108],+++ (≧50 = +++)
17,21 (YLMDDFSSL; listed as Homo sapiens) [compound 21],+++ (≧50 = +++)
18,87 (KLLSLLEEA; listed as Homo sapiens) [compound 87],+++ (≧50 = +++)
19,111 (AQLEGKLVSI; listed as Homo sapiens) [compound 111],+++ (≧50 = +++)
20,114 (LLFPSDVQTL; listed as Homo sapiens) [compound 114],++ (≧20% = ++)
21,65 (SLSEKSPEV; listed as Homo sapiens) [compound 65],++ (≧20% = ++)

# Second part, the molecule after the results:
row,Peptide exchange,Molecule
1,++ (≧20% = ++),216 (ALSTVTPRI; listed as Homo sapiens) [compound 216]
2,++ (≧20% = ++),198 (ILTNKVVSV; listed as Homo sapiens) [compound 198]
3,++ (≧20% = ++),174 (ALYSGDLHAA; listed as Homo sapiens) [compound 174]
4,++ (≧20% = ++),184 (ALDSTIAHL; listed as Homo sapiens) [compound 184]
5,+++ (≧50 = +++),131 (SLYPHFTLL; listed as Homo sapiens) [compound 131]
6,+++ (≧50 = +++),165 (SLLDYEVSI; listed as Homo sapiens) [compound 165]
7,+++ (≧50 = +++),162 (GLLGNLLTSL; listed as Homo sapiens) [compound 162]
8,+++ (≧50 = +++),125 (AALEVLAEV; listed as Homo sapiens) [compound 125]
9,+++ (≧50 = +++),223 (ALHPVQFYL; listed as Homo sapiens) [compound 223]
10,+++ (≧50 = +++),158 (YLDPLWHQL; listed as Homo sapiens) [compound 158]
11,+++ (≧50 = +++),122 (SIIDTELKV; listed as Homo sapiens) [compound 122]
12,+++ (≧50 = +++),217 (LLWPSSVPA; listed as Homo sapiens) [compound 217]
13,++ (≧20% = ++),221 (IMLNSVEEI; listed as Homo sapiens) [compound 221]
14,+++ (≧50 = +++),283 (ALSELLQQV; listed as Homo sapiens) [compound 283]
15,++ (≧20% = ++),258 (QLVQRVASV; listed as Homo sapiens) [compound 258]
16,++ (≧20% = ++),247 (NLLIDDKGTIKL; listed as Homo sapiens) [compound 247]
17,++ (≧20% = ++),219 (GVVPTIQKV; listed as Homo sapiens) [compound 219]

row,Peptide exchange,Molecule
1,++++ (≧75% = ++++),269 (GLLDCPIFL; listed as Homo sapiens) [compound 269]
2,+++ (≧50 = +++),280 (HLWGHALFL; listed as Homo sapiens) [compound 280]
3,+++ (≧50 = +++),159 (QLGPVPVTI; listed as Homo sapiens) [compound 159]
4,++++ (≧75% = ++++),206 (GLDAFRIFL; listed as Homo sapiens) [compound 206]
5,++ (≧20% = ++),199 (SVADLAHVL; listed as Homo sapiens) [compound 199]
6,++ (≧20% = ++),243 (GLAEFQENV; listed as Homo sapiens) [compound 243]
7,+++ (≧50 = +++),244 (NVAEIVIHI; listed as Homo sapiens) [compound 244]
8,+++ (≧50 = +++),285 (MLLDTVQKV; listed as Homo sapiens) [compound 285]
9,++ (≧20% = ++),119 (SLIEESEEL; listed as Homo sapiens) [compound 119]
10,+++ (≧50 = +++),190 (SLSTELFKV; listed as Homo sapiens) [compound 190]
11,+++ (≧50 = +++),130 (QLYGSAITL; listed as Homo sapiens) [compound 130]
12,+++ (≧50 = +++),168 (VIFEGEPMYL; listed as Homo sapiens) [compound 168]
13,+++ (≧50 = +++),270 (TLLTFFHEL; listed as Homo sapiens) [compound 270]
14,++ (≧20% = ++),149 (NMADGQLHQV; listed as Homo sapiens) [compound 149]
15,++ (≧20% = ++),188 (VLGEEQEGV; listed as Homo sapiens) [compound 188]
16,+++ (≧50 = +++),195 (VIIQNLPAL; listed as Homo sapiens) [compound 195]

# Target: T2, HLA-A*02:01 (human)
# T2 construct: MHC monomers captured on streptavidin plates; the UV-sensitive peptide is cleaved and exchanged with the test peptide; also called peptide-receptive MHC molecules; MHC class I
# Experiment: UV ligand-exchange ELISA (anti-b2m); +++ = exchange yield >=50
# Details: not given
# Excerpt: Candidate peptides for T cell based therapies according to the present invention were further tested for their MHC binding capacity (affinity). The individual peptide-MHC complexes were produced by UV-ligand exchange, where a UV-sensitive peptide is cleaved upon UV-irradiation, and exchanged with the peptide of interest as analyzed. Only peptide candidates that can effectively bind and stabilize the peptide-receptive MHC molecules prevent dissociation of the MHC complexes. To determine the yield of the exchange reaction, an ELISA was performed based on the detection of the light chain (β2m) of stabilized MHC complexes. The assay was performed as generally described in Rodenko et al. (Rodenko et al., 2006).
# 96 well MAXISorp plates (NUNC) were coated over night with 2 ug/ml streptavidin in PBS at room temperature, washed 4× and blocked for 1 h at 37° C. in 2% BSA containing blocking buffer. Refolded HLA-A*02:01/MLA-001 monomers served as standards, covering the range of 15-500 ng/ml. Peptide-MHC monomers of the UV-exchange reaction were diluted 100 fold in blocking buffer. Samples were incubated for 1 h at 37° C., washed four times, incubated with 2 ug/ml HRP conjugated anti-β2m for 1 h at 37° C., washed again and detected with TMB solution that is stopped with […]. Absorption was measured at 450 nm. Candidate peptides that show a high exchange yield (preferably higher than 50%, most preferred higher than 75%) are generally preferred for a generation and production of antibodies or fragments thereof, and/or T cell receptors or fragments thereof, as they show sufficient avidity to the MHC molecules and prevent dissociation of the MHC complexes.
row,peptide exchange yield,Molecule
1,50 to 75%,YTFSGDVQL (also called MMP1-003)
2,50 to 75%,QLREAFEQL
3,50 to 75%,RLHDENILL
4,50 to 75%,ILAQDVAQL
5,50 to 75%,ALLNNVIEV
6,50 to 75%,FLDSQITTV
7,50 to 75%,IILENIQSL
8,50 to 75%,LLWDAPAKC
9,50 to 75%,QLYGSAITL
10,50 to 75%,AQLEGKLVSI
11,50 to 75%,RLLDPKTIFL
12,50 to 75%,AALEVLAEV
13,50 to 75%,SLYPHFTLL
14,50 to 75%,SIIDTELKV

# — US20160279215A1, “NOVEL PEPTIDES AND COMBINATION OF PEPTIDES FOR USE IN IMMUNOTHERAPY AGAINST VARIOUS TUMORS” (immatics biotechnologies GmbH, priority 2015, published 2016)
